Experimental data as given in the supplement of paper PMC10567573.

B1: INTS4 (parent)
chain: TIIEPAGESDNPLRFTSGLVVALD

Variants of: B1
Assay: protein stability index of a GFP-peptide fusion (GPS, HEK-293T) (PSI 1-6); higher = more stable
Settings: c terminus: a fixed tail appended
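Further: lentivirally expressed fusions sorted by FACS into six bins by GFP to DsRed ratio, PSI derived from sequencing read proportions per bin multiplied by bin number.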

Row | Variant | protein stability index
1 | TIIEPAGESDNPLRFWSGLVVALD [T16W] | 1.76
2 | TIIEPAGESDNPLRFASGLVVALD [T16A] | 2.74
3 | TIIEPAGESDNPLRFGSGLVVALD [T16G] | 3.15
4 | TIIEPAGESDNPLRFDSGLVVALD [T16D] | 3.92
5 | TIIEPAGESDNPLRFISGLVVALD [T16I] | 2.21
6 | TIIEPAGESDNPLRFMSGLVVALD [T16M] | 2
7 | TIIEPAGESDNPLRQTSGLVVALD [F15Q] | 3.99
8 | TIIEPAGESDNPLRNTSGLVVALD [F15N] | 4.36
9 | TIIEPAGESDNPLRKTSGLVVALD [F15K] | 3.54
10 | TVIEPAGESDNPLRFTSGLVVALD [I2V] | 3.15
11 | TWIEPAGESDNPLRFTSGLVVALD [I2W] | 2.38
12 | TLIEPAGESDNPLRFTSGLVVALD [I2L] | 3.48
13 | TKIEPAGESDNPLRFTSGLVVALD [I2K] | 2.89
14 | TYIEPAGESDNPLRFTSGLVVALD [I2Y] | 2.32
15 | TNIEPAGESDNPLRFTSGLVVALD [I2N] | 3.9
16 | TIIEHAGESDNPLRFTSGLVVALD [P5H] | 2.83
17 | TIIETAGESDNPLRFTSGLVVALD [P5T] | 2.77
18 | TIIEMAGESDNPLRFTSGLVVALD [P5M] | 1.76
19 | TIIEPAGESDNPLRFTSGLVVAND [L23N] | 4.1
20 | TIIEPAGESDNPLRFTSGLVVATD [L23T] | 3.92
21 | TIIEPAGESDNPLRFTSGLVVAED [L23E] | 4.4
22 | TIIEPAGESDNPLRFTSGLVVAYD [L23Y] | 3.29
23 | TIIEPAGESDNPLRFTSGLVVASD [L23S] | 4.35
24 | TIIEPAGESDNPRRFTSGLVVALD [L13R] | 3.65

Row | Variant | protein stability index
25 | TIIEPAGESDNPSRFTSGLVVALD [L13S] | 3.86
26 | TIIEPAGESDNGLRFTSGLVVALD [P12G] | 2.68
27 | TIIEPAGESDNMLRFTSGLVVALD [P12M] | 2.33
28 | TIIEPAGESDNLLRFTSGLVVALD [P12L] | 2.1
29 | TIIEPAGESDNCLRFTSGLVVALD [P12C] | 2.52
30 | TIIEPAGESDNILRFTSGLVVALD [P12I] | 2.27
31 | TIIEPAGESDNPLRFTSGLVVALM [D24M] | 1.98
32 | TIIEPAGESDNPLRFTSGLVVALQ [D24Q] | 2.29
33 | TIIEPAGESDNPLRFTSGLVVALL [D24L] | 1.73
34 | TIIEPAGESDNPLRFTSGLVVALW [D24W] | 2.4
35 | TIIEPAGESDNPLRFTSGLVVALH [D24H] | 1.93
36 | TIIEPAGESDNPLRFTSGLVVALF [D24F] | 4.12
37 | TIIEPAGESDNPLRFTSGLVVALR [D24R] | 1.9
38 | TIIEPAGESDNPLRFTSGLVVALE [D24E] | 2.38
39 | TIIGPAGESDNPLRFTSGLVVALD [E4G] | 2.25
40 | TIIIPAGESDNPLRFTSGLVVALD [E4I] | 1.72
41 | TIIDPAGESDNPLRFTSGLVVALD [E4D] | 3.09
42 | TIICPAGESDNPLRFTSGLVVALD [E4C] | 2.05
43 | TIIEPAGFSDNPLRFTSGLVVALD [E8F] | 2.19
44 | TIIEPAGKSDNPLRFTSGLVVALD [E8K] | 1.9
45 | TIIEPAGPSDNPLRFTSGLVVALD [E8P] | 2.15
46 | TIIEPAGGSDNPLRFTSGLVVALD [E8G] | 2.32
47 | TIIEPAGSSDNPLRFTSGLVVALD [E8S] | 3.08
48 | TIIEPAGQSDNPLRFTSGLVVALD [E8Q] | 2.62

Row | Variant | protein stability index
49 | TIIEPAGYSDNPLRFTSGLVVALD [E8Y] | 1.99
50 | TIIEPAGRSDNPLRFTSGLVVALD [E8R] | 3.15
51 | TIIEPAGECDNPLRFTSGLVVALD [S9C] | 2.28
52 | TIIEPAGEKDNPLRFTSGLVVALD [S9K] | 2.87
53 | TIIEPAGELDNPLRFTSGLVVALD [S9L] | 2.38
54 | TIIEPAGEYDNPLRFTSGLVVALD [S9Y] | 2.48
55 | TIIEPAGESDNPLRFTSGLVVDLD [A22D] | 3.8
56 | TIIEPAGESDNPLRFTSGLVVILD [A22I] | 1.61
57 | TIIEPAGESDNPLRFTSGLVVWLD [A22W] | 1.87
58 | TIIEPAGESDNPLRFTSGLVVFLD [A22F] | 2.03
59 | TIIEPAGESDNPLRFTSGLVVNLD [A22N] | 3.18
60 | TIIEPAGESDNPLRFTSGLVVELD [A22E] | 4.07
61 | TIIEPAGESDNPLRFTSGLVVQLD [A22Q] | 2.65
62 | TIMEPAGESDNPLRFTSGLVVALD [I3M] | 3.23
63 | TIFEPAGESDNPLRFTSGLVVALD [I3F] | 2.38
64 | TISEPAGESDNPLRFTSGLVVALD [I3S] | 4.07
65 | TIGEPAGESDNPLRFTSGLVVALD [I3G] | 3.7
66 | TIVEPAGESDNPLRFTSGLVVALD [I3V] | 4.2
67 | TITEPAGESDNPLRFTSGLVVALD [I3T] | 3.4
68 | TIIEPAGESDMPLRFTSGLVVALD [N11M] | 2.21
69 | TIIEPAGESDEPLRFTSGLVVALD [N11E] | 3.33
70 | TIIEPAGESDVPLRFTSGLVVALD [N11V] | 2.33
71 | TIIEPAGESDWPLRFTSGLVVALD [N11W] | 1.63
72 | TIIEPAGESDTPLRFTSGLVVALD [N11T] | 2.64

Row | Variant | protein stability index
73 | TIIEPAGESDGPLRFTSGLVVALD [N11G] | 2.38
74 | TIIEPAGESDNPLRFTRGLVVALD [S17R] | 2.05
75 | TIIEPAGESDNPLRFTHGLVVALD [S17H] | 2.5
76 | TIIEPAGESDNPLRFTKGLVVALD [S17K] | 2.65
77 | AIIEPAGESDNPLRFTSGLVVALD [T1A] | 2.45
78 | IIIEPAGESDNPLRFTSGLVVALD [T1I] | 2.2
79 | YIIEPAGESDNPLRFTSGLVVALD [T1Y] | 2.08
80 | QIIEPAGESDNPLRFTSGLVVALD [T1Q] | 2.96
81 | TIIEPAWESDNPLRFTSGLVVALD [G7W] | 2.26
82 | TIIEPAFESDNPLRFTSGLVVALD [G7F] | 2.78
83 | TIIEPAHESDNPLRFTSGLVVALD [G7H] | 2.73
84 | TIIEPARESDNPLRFTSGLVVALD [G7R] | 3.54
85 | TIIEPSGESDNPLRFTSGLVVALD [A6S] | 2.54
86 | TIIEPKGESDNPLRFTSGLVVALD [A6K] | 2.98
87 | TIIEPDGESDNPLRFTSGLVVALD [A6D] | 3.7
88 | TIIEPWGESDNPLRFTSGLVVALD [A6W] | 1.78
89 | TIIEPQGESDNPLRFTSGLVVALD [A6Q] | 2.72
90 | TIIEPAGESDNPLRFTSGMVVALD [L19M] | 2.83
91 | TIIEPAGESDNPLRFTSGLVDALD [V21D] | 4.92
92 | TIIEPAGESDNPLRFTSGLVSALD [V21S] | 3.51
93 | TIIEPAGESDNPLRFTSGLVCALD [V21C] | 3.48
94 | TIIEPAGESDNPLRFTSGLVTALD [V21T] | 3.67
